Data as given in the nanobody polyreactivity screen of Harvey et al. (2022).

Experiment: yeast display, Sf9 membrane polyspecificity reagent, FACS + sequencing; frameworks hold sequencing errors
How it was run: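 Sorting gates, low and high (top ~1%), were placed on anti-HA fluorescence to track expression and on streptavidin fluorescence to track reagent binding. A clone's polyreactivity label is taken from the gate it came out of. The reagent was 10% biotinylated, detergent-solubilized Sf9 membrane, applied for 1 hour at 4 °C to galactose-induced yeast display cells.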

Sequence | polyreactivity (PSR sort gate)
QVQLVESGGGLVQAGGSLRLSCAASGRIFVRNAMGWYRQAPGKERELVAAITTGGRTYYADSVKGRFTISRDNAKNTVYVQMNSVKPEDTAVYYCAATGDRKGYKYIYSDTNDYWGQGTQVTVSS | low polyreactivity
QVQLVESGGGLVQAGGSLRLSCAASGRIFVRNAMGWYRQAPGKERELVADITNGGSTNYADSVKGRFTISRDNAKNTVYLQMNSLNPEDTAVYYCAADTLGVYDGDYWGQGTQVTVSS | low polyreactivity
QVQLVESGGGLVQAGGSLRLSCAASGRIFVRYAMGWYRPAPGKERELVATISSRGGSTYYADSVKGRFTISRDNAKNTVYLQMTSLKPEDTAVYYWAAYVYPWGRDYWGQGTQVTVSS | high polyreactivity
QVQLVESGGGLVQAGGSLRLSCAASGRIFVRYAMGWYRQAPGKEREFVAAINYSGGSTYADSVKGRFTISRDNAKNSVFLQMIRLKPEDTAVYYCAADYQGITSSDPYDYWGQGTQVTVSS | low polyreactivity
QVQLVESGGGLVQAGGSLRLSCAASGRIFVRYAMGWYRQAPGKERELVAAITTTGDSTYADSVKGRFTISRDNAKNTVYLQMNSLKPEDTAVYYCNAAWPESRFLVYHRYDYWGQGTQVTVSS | low polyreactivity
QVQLVESGGGLVQAGGSLRLSCAASGRIFVRYTMGWYRQAPGKERELVAAINSGGRTYYADSVKGRFTISRDNAKNTVYLQMNSLKPEDTAVYYCAADRVYYGQRDYWGQGTQVTVSS | high polyreactivity
QVQLVESGGGLVQAGGSLRLSCAASGRIFVTYAMGWYRQAPGKERELVAAITSRGGRTYYADSVKGRFTISRDNAKKTVYLQMNSLKPEDTAVYYCAAYPGPGARYYYWGQGTQVTVSS | high polyreactivity
QVQLVESGGGLVQAGGSLRLSCAASGRIFVTYAMGWYRQAPGKERELVASISRSGGRTYYADSVKGRFTISRDNAKNTVYLQMNSLKPEDTAVYYCNADQEGYQQYFYLGSPYDYWGQGTQVTVSS | low polyreactivity
QVQLVESGGGLVQAGGSLRLSCAASGRIFVTYAMGWYRQAPGTERELVAAINSSVSSTRYADSVKGRFTMSRDNAKNTVYLQMNSLKPEDTAVYYCAAVYRYVRPIAKDEYWGQGTQVTVSS | low polyreactivity
QVQLVESGGGLVQAGGSLRLSCAASGRIFVTYGMGWYRQAPGKERELVAAINWRGGSTYYADSVKGRFTISRDNAKNTVYLQMNSLKPEDTAVYYCNARLYRNRLGYWGQGTQVTVSS | high polyreactivity
QVQLVESGGGLVQAGGSLRLSCAASGRIFVVNAMGWYRQAPGKERELVATITRSGGITYYADSVKGRFTISRDNAKNTVYLQMNSLNPEDTAVYYCNADVLFYTYYTRGRFDFDYWGQGTQVTVSS | low polyreactivity
QVQLVESGGGLVQAGGSLRLSCAASGRIFVVYAMGWYRQAPGKERELVASISRGGRTYYADSVKGRFTISRDNAKNTVYLQMNSLKPEDTAVYDCAVVVYLKNRDLFDYWGQGTQVTVSS | low polyreactivity
QVQLVESGGGLVQAGGSLRLSCAASGRIFVYNAMGWYIQAPGKERELVAAISWSTGRTNYADSVKGRFTISRDNAKNTVYLQMNSLKPDDTAVYYCAAEWAWEYYSFWSEYDYWGQGTQVTVSS | high polyreactivity
QVQLVESGGGLVQAGGSLRLSCAASGRIFVYNAMGWYLQAPGKERELVANIDYSGGSTYYADSVKGRFTISRDNAKNTVYLQMNSLKPEDTAVYYCAADGGSTAFDYWGHGTQVTVSS | low polyreactivity
QVQLVESGGGLVQAGGSLRLSCAASGRIFVYNAMGWYRQAPGKEREFVAAISWDGASTYYADSVKGRFTISRDNAKNTVYLQMNSLKPEDTAVYYCAASYRRKLNYDYWGQGTQVTVSS | low polyreactivity
QVQLVESGGGLVQAGGSLRLSCAASGRIFVYNDMGWYRQAPGKERELVAAISSVGTTYYADSVKGRFTISRDNAKNTVYLQMNSLKPEDTAVYYCAVTRYHSPPRYYYWGQGTQVTVSS | low polyreactivity
QVQLVESGGGLVQAGGSLRLSCAASGRIFVYNTMGWYRQAPGKERELVAVISIGGSTKYADSVKGRFTISRDNAKNTVYLQMNSLKPEDTAVYYCNTDLAGLVYIAVDYWGQGTQVTVSS | low polyreactivity
QVQLVESGGGLVQAGGSLRLSCAASGRIFVYNVMGWYRQAPGKERELVAAISWGTGSTYADSVKGRFTISRDNAKNTVYLQMHSLKPEDTAVYYCAADSFIPPYDHWGQGTQVTVSS | low polyreactivity
QVQLVESGGGLVQAGGSLRLSCAASGRIFVYNVMGWYRQAPGKERELVAAISWGTGSTYADSVKGRFTISRDNAKNTVYLQMNSLKPEDTAVYYCAAPSPRSRAYTYRGDYWGQGTQVTVSS | low polyreactivity
QVQLVESGGGLVQAGGSLRLSCAASGRIFVYYAMGWYRQAPGKERELVAAIRWTGGSTYYADSVKGRFTISRDNAKNTVYLQMNSLKPEDTAVYYCATVNRYGHFNYWGQGTQVTVSS | high polyreactivity
QVQLVESGGGLVQAGGSLRLSCAASGRIFVYYAMGWYSQAPGKERELVASISYSGASTYYADSVKGRFTISRDNAKNTVYLQMNSLKPEDTAVYYCNTDGDDFFHVIYDYWGQGTQVTVSS | low polyreactivity
QVQLVESGGGLVQAGGSLRLSCAASGRIFWDNAMGWYRQAPGKERELVAAIDYRGGNTNYADSVKGRFTISRDNAKNTVYFQMNSLKPEDTAVYYCNAEWAVRYPGYDYWGQGSQVTVSS | low polyreactivity

Sequence | polyreactivity (PSR sort gate)
QVQLVESGGGLVQAGGSLRLSCAASGRIFWDYGMGWYRQAPGKERELVAVITWGGGSTYYADSVKGRFTISRDNAKNTVYFQMNSLKPEDTAVYYCAKEYHYYYWGQGTQVTVSS | low polyreactivity
QVQLVESGGGLVQAGGSLRLSCAASGRIFWEYAMGGYRQAPGKERELVAAITWRVGSTYYADSVKGRFTISRDYAKNTVYLQMNSLKPEDTAVFYCAAARYLSIYNYWGHGTQVTVSS | low polyreactivity
QVQLVESGGGLVQAGGSLRLSCAASGRIFWGNAMGWYRQAPGKERELVAAITRSGGSTYYADSVKGRFTISRDNAKNTVYLQMNSLKPEDTAVYYCAARRNYINFRYTLDYYYWGQGTQVTVSS | high polyreactivity
QVQLVESGGGLVQAGGSLRLSCAASGRIFWGYAMGWYRQAPGKERELVAAITSGGSTYYADSVKGRFTFSRDNAKNTVYLQMNSLKPEDTAVYYCAAYYVLKLRYGHRYYYWGQGTQVTVSS | high polyreactivity
QVQLVESGGGLVQAGGSLRLSCAASGRIFWGYAMGWYRQAPGKERELVAGIRTSGGTTYYADSVKGRFTISRDNAKNTVYLQMNSLKPEDTAVYYCAVVQYTVYNSLYDYWGQGTQVTVSS | low polyreactivity
QVQLVESGGGLVQAGGSLRLSCAASGRIFWGYDMGWYRQAPGKEREFVAAISSGGGRKYYADSVKGRFTISRDNAKNTVYLQMNSLKPEDTAVYYCNAELNWYYYIHLDYWGQGTQVTVSS | low polyreactivity
QVQLVESGGGLVQAGGSLRLSCAASGRIFWINAMGWYRQAPGKERELVATISSGSTSYADSVKGRFTISRDNAKNTVYLQMNSLKPEDTAVYYCAADFVFRWYSYTGRWYSSYDYWGQGTQVTVSS | low polyreactivity
QVQLVESGGGLVQAGGSLRLSCAASGRIFWPNTMGWYRQAPGKERELVATITSTGTRTYYADSVKGRFTISRDNAKNTVYLQMNSLNPEDTAVYYCNARGYYRPDRPTRRNRFDYWGQGTQVTVSS | high polyreactivity
QVQLVESGGGLVQAGGSLRLSCAASGRIFWQYAMGWYRQAPGKERELVAAISRSGGSTYYADSVKGRFTISRDNAKNTVYLQMKCLTPEDTAVYYCAARKASGVPGSAGRPEYYYWGQGTQVTVSS | high polyreactivity
QVQLVESGGGLVQAGGSLRLSCAASGRIFWRYAMGWYRQAPGQERELVAAISRGGGRTYYADSVKGRFTSSRDNAKNTVYLQMNSLKPEDTAVYYCAARSTQGRFENWGQGTQVTVSS | high polyreactivity
QVQLVESGGGLVQAGGSLRLSCAASGRIFWTNAMGWYRQAPGKERELVAGITWRGGSTYYADSVKGRFTISRDNAKNTVYLQMNSLKPEDTAVYYCATRQGWYSGFDYWGQGTQVTVSS | high polyreactivity
QVQLVESGGGLVQAGGSLRLSCAASGRIFWVYAMGWYRQAPGKERELVAAISSTGDGTYYADSVKGRFTISRDNAKNTVYLQMNSLKPVDTAVYYCAADFRVARSPLSGGSDYWGQGTQVTVSS | low polyreactivity
QVQLVESGGGLVQAGGSLRLSCAASGRIFWVYAMGWYRQAPGKERELVAAISTRGGSTYYADSVKGRFTISRDNAKNRVYLQKNRLKPDDTAVYYCAADYDDKYDYWGQGTQVTVSS | low polyreactivity
QVQLVESGGGLVQAGGSLRLSCAASGRIFWWNTMGWYRQAPGKERELVASITGSGGRTSYADSVKGRFTISRDNAKNTVYLQMNSLKPEDTAVYYCAKEHVSKWSYPYYYWGQGTQVTVSS | high polyreactivity
QVQLVESGGGLVQAGGSLRLSCAASGRIFWYYAMGWYRQAPGKERELVAAITRSGASTYYADSVKGRFTISRDNAKNTVYLQMNSLKPEDTAVYYCAARGRWNVPARRDYWGQGTQVTVSS | high polyreactivity
QVQLVESGGGLVQAGGSLRLSCAASGRIFWYYAMGWYRQAPGKEWELVARISSSGGSTYYADSVKGRFTISRDNAKNTVYLQMNSLKPEDTAVYYCAKERYSGSSRYPMDYWGQGTQVTVSS | high polyreactivity
QVQLVESGGGLVQAGGSLRLSCAASGRIFWYYDMGWYRPAPGKERELVAAISQRGGSTYYADSVKGRFTISRDNAKNTVYLQMNSLKPEDTAVYYCAAYSRYLGPTHHIKYDYWGQGTQVTVSS | high polyreactivity
QVQLVESGGGLVQAGGSLRLSCAASGRIFYANAMGWYRQAPGKEWEFVASITYGGGSTYYADSVKGRFTISRDNAKNTVYLQMNSLKPEDTAVYYCAAGYYAQYEDYIRYDYWGQGTQVTVSS | low polyreactivity
QVQLVESGGGLVQAGGSLRLSCAASGRIFYAYALGWYRQATGIERELVAAISRRGGSTYYADSVKGRFTISRDNAKNTVYLQMNSLKPEDTAVYYCAADRQFSYVYYIDPTAYEYCGQGTQVTVSS | high polyreactivity
QVQLVESGGGLVQAGGSLRLSCAASGRIFYAYAMGWYRQAPGKEREFVAAISWGGGSTNYADSVKGRFTISRDNAKNTVYLQMNSLKPEDTAVYYCATGFYYYLTKTIPYEYEYWGQGTQVTVSS | low polyreactivity
QVQLVESGGGLVQAGGSLRLSCAASGRIFYAYAMGWYRQAPGKERELVAAISYIAGITYYADSVKGRFTISRDNAKNTVYLQMNSLIPEDTAVYYCAADDMVTGPLDFWGQGTQVTVSS | low polyreactivity
